Earlier results on one substance are cited in publication PMC5996525.

The target of the data set is CTLA-4 (Homo sapiens) (UniProt P16410). Description: SPR.
Sequence of UniProt P16410 (P16410 36-161): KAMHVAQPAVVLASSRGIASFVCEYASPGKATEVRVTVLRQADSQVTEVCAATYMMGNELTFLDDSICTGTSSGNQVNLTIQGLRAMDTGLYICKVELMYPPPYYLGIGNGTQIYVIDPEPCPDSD

tremelimumab: the Kd was 5.89 nM.

The Kd is the constant that tells how readily two partners part at equilibrium.
